The record followed here is the supplement of paper PMC9112550, “Optimization of the antimicrobial peptide Bac7 by deep mutational scanning” (BMC Biology, 2022).
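Also: peptides expressed intracellularly from a pBAD plasmid library in pooled LB shake-flask culture, induced with 0.3% L-arabinose, DNA abundance read by NGS, three biological replicates, DESeq2 with apeglm shrinkage.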

The data set relates to Escherichia coli TOP10. The experiment in a line: shrunken log2 fold change of peptide-encoding DNA abundance (4.5 h post-induction vs induction); higher = less antimicrobial activity (less host growth inhibition). The note with it: time post-induction: 4.5 h; library: site-saturation at positions 5, 18, 19, 20.
On to RRIRNRPPRLPRPRPRPNWKPRP, for which the “shrunken log2 fold change” value was -0.0062. Consider RRIRWRPPRLPRPRPRPWQYPRP, for which the “shrunken log2 fold change” value was -0.0277. The figure for RRIRFRPPRLPRPRPRPYKYPRP is -0.907; for RRIRPRPPRLPRPRPRPEANPRP it is 0.473. Take RRIRPRPPRLPRPRPRPDPYPRP: the “shrunken log2 fold change” value was 0.0668. Consider RRIRQRPPRLPRPRPRPIPKPRP, for which the “shrunken log2 fold change” value was -0.0574. Consider RRIRPRPPRLPRPRPRPANPPRP, for which the “shrunken log2 fold change” value was 0.13. Turning to RRIRARPPRLPRPRPRPWTQPRP, the “shrunken log2 fold change” value was 0.0723. Regarding RRIRSRPPRLPRPRPRPNYGPRP, the “shrunken log2 fold change” value is -0.0945. Take RRIRDRPPRLPRPRPRPYHWPRP: the “shrunken log2 fold change” value was 0.0299.

On to RRIRQRPPRLPRPRPRPYYFPRP, for which the “shrunken log2 fold change” value is -0.661. Regarding RRIRPRPPRLPRPRPRPVIEPRP, the “shrunken log2 fold change” value was -0.0347. Regarding RRIRHRPPRLPRPRPRPNPYPRP, the “shrunken log2 fold change” value was -0.161. As for RRIRMRPPRLPRPRPRPIWVPRP, the “shrunken log2 fold change” value is -0.0406. For the sequence RRIRDRPPRLPRPRPRPTGGPRP, the “shrunken log2 fold change” value stood at 0.166. With RRIRKRPPRLPRPRPRPCVMPRP, the “shrunken log2 fold change” value was determined as 0.0542. Turning to RRIRNRPPRLPRPRPRPQFGPRP, the “shrunken log2 fold change” value is -0.508. As for RRIRIRPPRLPRPRPRPEPSPRP, the “shrunken log2 fold change” value came out at 3.27.

For RRIRQRPPRLPRPRPRPKIHPRP, the “shrunken log2 fold change” value is -0.558. Consider RRIRTRPPRLPRPRPRPRFTPRP, for which the “shrunken log2 fold change” value was determined as 0.0679. Turning to RRIRLRPPRLPRPRPRPYLIPRP, the “shrunken log2 fold change” value is -0.274. In the case of RRIRMRPPRLPRPRPRPCFRPRP, the “shrunken log2 fold change” value amounted to 0.123. On to RRIRARPPRLPRPRPRPMEYPRP, for which the “shrunken log2 fold change” value was -0.154. As for RRIRPRPPRLPRPRPRPYTIPRP, the “shrunken log2 fold change” value amounted to 0.00679. Consider RRIRRRPPRLPRPRPRPHNRPRP, for which the “shrunken log2 fold change” value is 0.0584. For RRIRARPPRLPRPRPRPQREPRP, the “shrunken log2 fold change” value was 0.869. Take RRIRARPPRLPRPRPRPNIKPRP: the “shrunken log2 fold change” value is -0.14. Regarding RRIRVRPPRLPRPRPRPDTDPRP, the “shrunken log2 fold change” value is -0.646. In the case of RRIRYRPPRLPRPRPRPKWAPRP, the “shrunken log2 fold change” value is -0.0552. Regarding RRIRYRPPRLPRPRPRPQWCPRP, the “shrunken log2 fold change” value is -0.219. With RRIRDRPPRLPRPRPRPGMCPRP, the “shrunken log2 fold change” value is 0.432. Consider RRIRTRPPRLPRPRPRPKPEPRP, for which the “shrunken log2 fold change” value was found to be 0.0154.

Take RRIRERPPRLPRPRPRPHIRPRP: the “shrunken log2 fold change” value is -0.126.

In the case of RRIRQRPPRLPRPRPRPVRHPRP, the “shrunken log2 fold change” value is -0.0023.

Consider RRIRLRPPRLPRPRPRPLQTPRP, for which the “shrunken log2 fold change” value is 0.101.

On to RRIRARPPRLPRPRPRPWQNPRP, for which the “shrunken log2 fold change” value came out at 0.05. As for RRIRMRPPRLPRPRPRPVEVPRP, the “shrunken log2 fold change” value stood at 0.389. On to RRIRSRPPRLPRPRPRPYNKPRP, for which the “shrunken log2 fold change” value is -1.01. The same measure for RRIRYRPPRLPRPRPRPPEQPRP: 0.357; for RRIRTRPPRLPRPRPRPENHPRP: -0.119; for RRIRERPPRLPRPRPRPAIMPRP: -0.299. The same measure for RRIRPRPPRLPRPRPRPPMQPRP: 0.421. Regarding RRIRCRPPRLPRPRPRPKQCPRP, the “shrunken log2 fold change” value came out at 0.269.

With RRIRQRPPRLPRPRPRPVSPPRP, the “shrunken log2 fold change” value was -0.0264. The figure for RRIRARPPRLPRPRPRPRSVPRP is 0.665; for RRIRQRPPRLPRPRPRPPQDPRP it is 1.1; for RRIRCRPPRLPRPRPRPDRKPRP it is -0.458. For the sequence RRIRCRPPRLPRPRPRPMSKPRP, the “shrunken log2 fold change” value is -0.5. RRIRTRPPRLPRPRPRPKMVPRP: the “shrunken log2 fold change” value was -0.0237. The same measure for RRIRGRPPRLPRPRPRPQGMPRP: 0.0957; for RRIRRRPPRLPRPRPRPEWAPRP: 0.437. Consider RRIRYRPPRLPRPRPRPWSWPRP, for which the “shrunken log2 fold change” value was determined as 0.0225. The figure for RRIRHRPPRLPRPRPRPPFIPRP is -0.483. Regarding RRIRARPPRLPRPRPRPHYLPRP, the “shrunken log2 fold change” value is -0.503. Turning to RRIRIRPPRLPRPRPRPNEPPRP, the “shrunken log2 fold change” value was -0.0172. In the case of RRIRYRPPRLPRPRPRPWIWPRP, the “shrunken log2 fold change” value is -0.000921. Take RRIRERPPRLPRPRPRPSHCPRP: the “shrunken log2 fold change” value was 0.0392. Take RRIRPRPPRLPRPRPRPRQSPRP: the “shrunken log2 fold change” value was found to be 0.0298. The same measure for RRIRGRPPRLPRPRPRPRNHPRP: 0.563; for RRIRTRPPRLPRPRPRPYGEPRP: -0.074. RRIRDRPPRLPRPRPRPNHEPRP: the “shrunken log2 fold change” value was -0.0728. In the case of RRIRFRPPRLPRPRPRPWFMPRP, the “shrunken log2 fold change” value was -0.609. Regarding RRIRARPPRLPRPRPRPAFAPRP, the “shrunken log2 fold change” value stood at 0.685.

For RRIRHRPPRLPRPRPRPMKMPRP, the “shrunken log2 fold change” value was determined as 0.043. Take RRIRYRPPRLPRPRPRPTNQPRP: the “shrunken log2 fold change” value is -0.575. As to RRIRSRPPRLPRPRPRPCHWPRP, the “shrunken log2 fold change” value was -0.0782.

For RRIRWRPPRLPRPRPRPSNRPRP, the “shrunken log2 fold change” value is -0.174. The figure for RRIRTRPPRLPRPRPRPSLRPRP is -0.294. The figure for RRIRHRPPRLPRPRPRPLMFPRP is -0.236. With RRIRVRPPRLPRPRPRPVTTPRP, the “shrunken log2 fold change” value worked out at 0.126.

For RRIRFRPPRLPRPRPRPMDYPRP, the “shrunken log2 fold change” value was -0.00172. Take RRIRTRPPRLPRPRPRPLHFPRP: the “shrunken log2 fold change” value is -0.189. The figure for RRIRHRPPRLPRPRPRPWRNPRP is 0.00611; for RRIRFRPPRLPRPRPRPDWHPRP it is -0.152. As to RRIRPRPPRLPRPRPRPQRLPRP, the “shrunken log2 fold change” value turned out to be 0.0191. As for RRIRCRPPRLPRPRPRPNKAPRP, the “shrunken log2 fold change” value is -0.116. RRIRGRPPRLPRPRPRPFDCPRP: the “shrunken log2 fold change” value is -0.208.

As for RRIRARPPRLPRPRPRPIPEPRP, the “shrunken log2 fold change” value turned out to be 0.0265. Turning to RRIRDRPPRLPRPRPRPGRKPRP, the “shrunken log2 fold change” value came out at 0.0333.

For RRIRVRPPRLPRPRPRPRPYPRP, the “shrunken log2 fold change” value turned out to be 0.179. With RRIRGRPPRLPRPRPRPEISPRP, the “shrunken log2 fold change” value stood at 1.5. RRIRFRPPRLPRPRPRPDEPPRP: the “shrunken log2 fold change” value stood at 0.248. The figure for RRIRRRPPRLPRPRPRPNSNPRP is -0.302. The same measure for RRIRVRPPRLPRPRPRPYFCPRP: -0.483. Turning to RRIRVRPPRLPRPRPRPATQPRP, the “shrunken log2 fold change” value is -0.0949. In the case of RRIRNRPPRLPRPRPRPGTQPRP, the “shrunken log2 fold change” value is -0.128.

For RRIRLRPPRLPRPRPRPKMYPRP, the “shrunken log2 fold change” value was -0.14. The same measure for RRIRCRPPRLPRPRPRPYMAPRP: -0.283; for RRIRMRPPRLPRPRPRPIEKPRP: -0.00199; for RRIRLRPPRLPRPRPRPGSCPRP: 0.0403. Turning to RRIRTRPPRLPRPRPRPKEHPRP, the “shrunken log2 fold change” value is -0.174. For the sequence RRIRQRPPRLPRPRPRPMKNPRP, the “shrunken log2 fold change” value is -0.124. The same measure for RRIRDRPPRLPRPRPRPRDPPRP: 2.7; for RRIRARPPRLPRPRPRPHHIPRP: -0.345. With RRIRSRPPRLPRPRPRPLHRPRP, the “shrunken log2 fold change” value was -0.216.

Take RRIRNRPPRLPRPRPRPPKMPRP: the “shrunken log2 fold change” value was -0.168. Turning to RRIRHRPPRLPRPRPRPGSVPRP, the “shrunken log2 fold change” value was -0.31. Consider RRIRPRPPRLPRPRPRPKPFPRP, for which the “shrunken log2 fold change” value worked out at 0.129.

As to RRIRFRPPRLPRPRPRPCMFPRP, the “shrunken log2 fold change” value was -0.556. As for RRIRDRPPRLPRPRPRPICQPRP, the “shrunken log2 fold change” value amounted to 0.0244. Regarding RRIRDRPPRLPRPRPRPHIYPRP, the “shrunken log2 fold change” value is -0.0848. As to RRIRERPPRLPRPRPRPPFFPRP, the “shrunken log2 fold change” value came to 0.0761. The same measure for RRIRFRPPRLPRPRPRPIMTPRP: -0.368. As to RRIRWRPPRLPRPRPRPEGNPRP, the “shrunken log2 fold change” value was 0.29. The figure for RRIRFRPPRLPRPRPRPGTYPRP is -0.851. RRIRPRPPRLPRPRPRPSPPPRP: the “shrunken log2 fold change” value amounted to 0.0408. The figure for RRIRTRPPRLPRPRPRPPFKPRP is 0.332; for RRIRARPPRLPRPRPRPPQFPRP it is 0.953.

Consider RRIRDRPPRLPRPRPRPYDPPRP, for which the “shrunken log2 fold change” value worked out at 0.0101. Turning to RRIRFRPPRLPRPRPRPYEYPRP, the “shrunken log2 fold change” value was -0.488.

As for RRIRYRPPRLPRPRPRPHFRPRP, the “shrunken log2 fold change” value is -0.444. On to RRIRYRPPRLPRPRPRPYSIPRP, for which the “shrunken log2 fold change” value is -0.264. On to RRIRNRPPRLPRPRPRPENCPRP, for which the “shrunken log2 fold change” value amounted to 0.0518. The figure for RRIRFRPPRLPRPRPRPHYTPRP is -0.385; for RRIRTRPPRLPRPRPRPFSHPRP it is -0.399; for RRIRMRPPRLPRPRPRPSWLPRP it is 0.0725. For the sequence RRIRCRPPRLPRPRPRPAHRPRP, the “shrunken log2 fold change” value turned out to be 0.392. For RRIRTRPPRLPRPRPRPAVYPRP, the “shrunken log2 fold change” value is -0.181. For RRIRWRPPRLPRPRPRPEIVPRP, the “shrunken log2 fold change” value is -0.00443.

Turning to RRIRCRPPRLPRPRPRPMQKPRP, the “shrunken log2 fold change” value is 0.0364. As to RRIRHRPPRLPRPRPRPAWDPRP, the “shrunken log2 fold change” value was -0.0216. As to RRIRDRPPRLPRPRPRPACCPRP, the “shrunken log2 fold change” value amounted to 0.512. With RRIRHRPPRLPRPRPRPDLVPRP, the “shrunken log2 fold change” value was -0.104. In the case of RRIRFRPPRLPRPRPRPCGFPRP, the “shrunken log2 fold change” value amounted to 0.0163.

For RRIRLRPPRLPRPRPRPWHKPRP, the “shrunken log2 fold change” value is -0.0761.
